The data set can be described thus: label from the status in PepcDB records.

Turning to “MGSYQLLVPPPEALSKPLSVPTRLLLGPGPSNLAPRVLAAGSLRMIGHMQKEMLQIMEEIKQGIQYVFQTRNPLTLVVSGSGHCAMETALFNLLEPGDSFLTGTNGIWGMRAAEIADRIGARVHQMIKKPGEHYTLQEVEEGLAQHKPVLLFLVHGESSTGVVQPLDGFGELCHRYQCLLLVDSVASLGGVPIYMDQQGIDIMYSSSQKVLNAPPGISLISFNDKAKYKVYSRKTKPVSFYTDITYLAKLWGCEGETRVIHHTTPVTSLYCLRESLALIAEQGLENCWRRHREATAHLHKHLQEMGLKFFVKDPEIRLPTITTVTVPAGYNWRDIVSYVLDHFSIEISGGLGPTEERVLRIGLLGYNATTENVDRVAEALREALQHCPKNKL”, the protein production result was “not failed”.

Regarding “MGTGGITSNAHVVSPTWHHKHVPPMDDDSVLQRDIGELLSRWGGLQMAVKNQWGGHDSLKKSQELAHNLFHLISQSNGSIFFLLL”, the protein production result is listed as “failed”.

In the case of “MGTKVSDMQKNVTPGRRKGCPNYPPEFKQQLVAASCEPGISISKLALENGINANLLFKWRQQWREGKLLLPSSESPQLLPVTLDAAAEQPESLAEDPETLSISCEVTFRHGTLRFNGNVSEKLLTLLIQELKR”, the protein production result is listed as “failed”.

Regarding “MGTLWWNGTFFTMVHEGDQVEAVFTEDGKIVAIGTAEELRQRYSTRINQEMNCDGAYVYPLEHHHHHH”, the protein production result is recorded as “not failed”.

As to “MGTVHARSLDPLPMNGPDFGSPDDADLVEVEPQKKQEILENKDVVVQRVHFEGLGRTKDDLVAHEIGQVFKAKNLIEVMRKSHEAREKLLRLGVFRNVEVLIDTCEGEDAVPNGLDVTFEVTELRRVTGSYNTMVGNNEGSMVLGLKLPNLFGRAEKMTFQFSYGTKETSYGLSFFKPQVGNFERNFSVNLYKVTGQFPWSSLRETDRGVSAEINFPIWKTSHTLKWEGVWRELGCLARTASFTIREESGHTLKSSLSHSMVIDSRNASILPKSGALLKINQELAGYTGGDVSFLKEDFELQLNRQLTWDSVLSTSLWGGMLVPIGDRPSSIADRFYLGGPTSVRGFSMYSIGPQSEGDYLGGEAYWAGGVHLYTPLPFRPGRGGFGDLFRTHFFLNAGNLCNLNYGEGPGAHLRRLAECIRWSYGAGLVLRLGNIARLELNYCIPMGVQSGDRICDGVQFGAGIRFL”, the protein production entry is reported as “failed”.

As for “MGTVSKALTLLTYFNHGRLEIGLSDLTRLSGMNKATVYRLMSELQEAGFVEQVEGARSYRLGPQVLRLAALREASVPILSASRRVLRELSEDTGETTHLSLLQGEQLASLSHAYSSRNATKVMMEDAEVLTFHGTASGLAVLAYSEPSFVDAVLAAPLTARTPQTQTDPAAIRAEIAEVRRTGLAQSIGGFEAEVHSHAVPIFGPDRAVLGALAVAAPTSRMTPDQKRTIPPALRAAGLSLTERIGGACPPEFPTDIAA”, the protein production result is “not failed”.

For “MGVLDIVKAGVISGDELNKIYDYAKAEGFAIPAVNVVGTDSINAVLEAAKKVNSPVIIQFSNGGAKFYAGKNCPNGEVLGAISGAKHVHLLAKAYGVPVILHTDHAARKLLPWIDGLIEANAQYKKTHGQALFSSHMLDLSEESLEENLSTCEVYLQKLDALGVALEIELGCTGGEEDGVDNTGIDNSKLYTQPEDVALAYERLGKISDKFSIAASFGNVHGVYKPGNVSLQPEILKNSQKFVKDKFALNSDKPINFVFHGGSGSELKDIKNAVSYGVIKMNIDTDTQWAFWDGVREYELKNRAYLQGQIGNPEGDDKPNKKYYDPRVWLRSGEESMIKRLEIAFEDLNCINKN”, the protein production result is listed as “not failed”.

Turning to “MGVNMEVCVVKPTSVDDSREITETLLAGRTVILNLEGMDLEIAQRIIDFISGATFAISGNLQKISNYIFLVTPTNVDILEHHHHHH”, the protein production entry is given as “failed”.

Regarding “MGVSEISRSEEKSGIGFVKLFENNVVFPGFLVWMNQTIQEPLKAEFKRLRNVKELSLKSVSKIETAYEEHRDEEKLEKQLQAWRDNPSWIDQPPKVVVKSQNGLFCHLNIEADVGLPPELVYNIFTHPDNKRYFKNIKENISRKVLIDEGPKQTVEVKQAAAWKFLWWDGTCPIHLIVEENRKNLTSKYKQETTMFMKVFEGCWKVEPLFIDEHLCDRSKPKSQKDYHSCSNGRGRIGSKVTMDQMFQPSALLTPPPLSWYIRGITIKTTESMIEDLFAEATRLRGGKGGGYIDDQGENNVVTEKSKADDIKERWRSHRRSKRRRFTTARSM”, the protein production entry is “failed”.

Regarding “MGVSPQVARWFDCDLRSVVDHGVDRLRFTWKLGDPVEAELPSEEPFWMVRRDRFDHFLVEQAANLGARIEDGAAVTAVSAEGDGWLVTVGDRAYRSRTLIAADGARGPLAQWLGFPSQKRRYAQACELDVPLPARPDSTAHFEFGLVRNGYIWVFPKSDGYSIGIGTFRGNDATDFRGLLETYLAGFGVSADLDRIVPHPLCVWDGSQPLHRGSALLVGEAASLTDPFTAEGIRPALLSGMRAAEAIDRAIAGDRNALAGYSRTIQQEWGDSMAWAKRISSVFYRVPNLGYQIGIKRPTAPQRMAQILVGELDYSDIATRVIRRLTTGFLPGMRLEHHHHHH”, the protein production entry is recorded as “failed”.

On to “MGVVLARGAFRERSMLTLPDFPLPDARGRFGPYGGRYVPETLIPALEELEAAYREAKKDPAFLEELDHYLRQFAGRPTPLYHAKRLSEYWGGAQVFLKREDLLHTGAHKINNTLGQALLARRMGKRRVIAETGAGQHGVSVATVAALFGLECVVYMGEEDVRRQALNVFRMKLLGAEVRPVAAGSRTLKDATNEAIRDWITNVRTTFYILGSVVGPHPYPMMVRDFQSVIGEEVKRQSLELFGRLPDALIAAVGGGSNAIGLFAPFAYLPEGRPKLIGVEAAGEGLSTGRHAASIGAGKRGVLHGSYMYLLYDHDGQITPAHSVSAGLDYPGVGPEHSYYADAGVAEYASVTDEEALEGFKLLARLEGIIPALESAHAIAYAAKVVPEMDKDQVVVINLSGRGDKDVTEVMRLLGGEL”, for which the protein production result is “not failed”.

Regarding “MGWHFQQSVTMPSEWRTLALESDDSYNDFTVIMRRKLQENQVNVVNLEQNIPILRINKQITSDQVASIFKHGREAEKLLMLEVEATFRLANGESYPINAKVNRTFFDNARAALAKSEEREVIWNDMREQVARQLIVKIIALQNQIKRKLEHHHHHH”, the protein production result is recorded as “not failed”.

For “MGYCIIIPAYNAARTLPAVVREVLGLGMPCLVVDDGSTDGTSATVEGLGVHLLRHDGNRGKGAALRTGFEWALAHGYSGVVTLDADGQHDPTAIPLLAATARERNVDILIASRDTQFREMAGLRSVWNRFGVWCMRKRTGFTITDSQSGFRWYSARLLKGVSLEASGYHLEMEILMKAWRGGFAIDSLPVAARVADGRATSHFRPVRDTWNICMTFLRHMLEHHHHHH”, the protein production result is recorded as “not failed”.

As for “MGYEGIIVVDVRDAEAYKECHIPTAISIPGNKINEDTTKRLSKEKVIITYCWGPACNGATKAAAKFAQLGFRVKELIGGIEYWRKENGEVEGTLGAKADLFWNMKKESLEHHHHHH”, the protein production result is recorded as “failed”.

“MGYLKNHWWKRWIRRRGCKLAGGPASVGKRTTLVLEERVELGHLRIVPPRLEIGAYSYVRSGTDLSLVASIGRFCSIGSDCFIGQEKHTHPSDWVSSHPFQHTGTALRYEPALSYAEIGHDVWIGHSAMVMEGVKVGTGAIIATRAVVTRDVPPYAIVAGTPAQVIRYRHPPEIIEGLLASRWWELDSAFLTGLPLDR”: the protein production result was “failed”.

On to “MGYQLSATLKGHDQDVRDVVAVDDSKVASVSRDGTVRLWSKDDQWLGTVVYTGQGFLNSVCYDSEKELLLFGGKDTMINGVPLFATSGEDPLYTLIGHQGNVCSLSFQDGVVISGSWDKTAKVWKEGSLVYNLQAHNASVWDAKVVSFSENKFLTASADKTIKLWQNDKVIKTFSGIHNDVVRHLAVVDDGHFISCSNDGLIKLVDMHTGDVLRTYEGHESFVYCIKLLPNGDIVSCGEDRTVRIWSKENGSLKQVITLPAISIWSVDCMSNGDIIVGSSDNLVRIFSQEKSRWASEDEINELSTQVEKSTISSKTIEFDESKLSPYEILQSPGRKEGQIVVVKSPQGTIEAHQFSNSSWKKVGDVVGAGATGNDKKIEFEGKTYDYVFDVDIEDGKPPLKLPINVSDNPYTAADNFLARYELPMSYRDQVVQFILKNTNGISLDQPNDNASSSAVSPSKTSVMKVLPVKQYLIMENYNPDTIFNGIVKINSNEKTFDDEILAQIGGALHDIDESWELLLSFANTIRSNWEIKTPAYDIVRLIVKKLPYSSDIKDYIEEGLGNKNITLTMLTVRILVNCFNNENWGVKLLESNQVYKSIFETIDTEFSQASAKQSQNLAIAVSTLIFNYSALVTKGNSDLELLPIVADAINTKYGPLEEYQECEEAAYRLTVAYGNLATVEPTLRQFANSVTWLANIKRSYGNVPRFKDIFDDLS”, for which the protein production entry was “failed”.

Turning to “MHCALLYSGGKDSTLAALLLDPFYDVTLVSGSFGVRDTDPAQESATAVGFDHVTVDLDPDVAHDAVKQMFDDGYPRNGIQRVHEHAVETVARADWVADADGLGTLDAVADGTRRDDRVPTVDRPLAQSIEDRFDVDYLAPLAGIGRGAIDAMAADRLVVESGPSAEIPKADYEVELRALLRKRYGEGAVADVFPEHTQSRVQGLR”, the protein production result is “failed”.

Consider “MHELIRDITLCILFAWMLGLLAHFSRQPLILAYLIAGFCIGPFGAGWVKSQESISVISELGLIFMLFMIGLEIDLKKIVRAGKVILFAAGGQLPGGCLLGVLFFAGIGLSLGGGHFDAVYLCIACALSSTVIIVKVLYEKRELDTLPGRITLGVLVLQDIFAILFLAVQPSLANLQVSVILLSIGRVAVLVAAALLVSRYVLPRLFHQIARRPELILLGALAWCFLVAETAERLSLSREMGALIAGVSLSTFPYALDVTAKVTTLRDFFITLFFVALGMTIPVPGLSVIGLALMIAAFTVVSRLVTTFTPLYLMKQGLRASLLPALNLAQISEFSLVVIQTGVTDNHIAAETANAASFAFVVLAVLSTFVMTRSDEIARWAIGPLKRIGLRDLDHGNGHAEEGHEGGHGEARRIVILGFFRAASALLAEIERQAPVLLEQITVVDFNPNVYQTLLSRGLHVIYGDISSADTLLHAGVGKSEMIILSVPDALLKGASNEKLVRHVRTLNPTAMIVATADLLSDVGELYEAGASYVTVTRLSDAHELFTVIEAAQAGLLADKRAELDLRLGERREVLP”, for which the protein production entry is “failed”.

Consider “MHESRLLLVMHWTEILAVFSFAVSGLAEARRRRLDAVGAFIVAFLTAFGGGTLRDLLLDRRPFYWVEHEQYLLALFVMSLFANRVIRLVSQLVSDRVLIVADAVGLGLFGVLGTQLALDAGVPVFVSVMMGVITAAFGGLLRDVVCNEIPMLLRDNRPYATCAFLGCWLYVGLTHTSLQPSVAVVVATLAIVAGRLATLRWNITLPR”, for which the protein production result is reported as “failed”.

As for “MHHLILGYGYCGYYLAQELLGHHQQVTVVSRQLKKELELSKLQHISHDLEYPFHWSEPDSIIYYLIPPPSQGTCDTFLQQFLNQSSLNAKKIIYFGSSGVYGNHQGAWVDELSACIIDSPRQQRRLDAEQQWLAYCQQHNKELSLLRIAGIYGPNRIPADAAKSKIPIIKPTEAPFTNHIFVKDLALIAYLLGQKQTTSAVYNVADGNPTHMGELQQTVANALGIESASYESFEQAWEKASPMKREFMRASKRLKIDLLKTALGEDIQFTSLYDAVKQSL”, the protein production entry is “failed”.

For the sequence “MHHQSVLHSGYFHPLLRSWQTAASTVSASNLIYPIFVTDVPDDVQPIASLPGVARYGVNQLEEMLRPLVEAGLRCVLIFGVPSRVPKDEQGSAADSEDSPTIEAVRLLRKTFPSLLVACDVCLCPYTSHGHCGLLSENGAFLSEESRQRLAEVALAYAKAGCQVVAPSDMMDGRVEAIKAALLKHGLGNRVSVMSYSAKFASCFYGPFRDAAQSSPAFGDRRCYQLPPGARGLALRAVARDIQEGADMLMVKPGLPYLDMVREVKDKHPELPLAVYQVSGEFAMLWHGAQAGAFDLRTAVLETMTAFRRAGADIIITYFAPQLLKWLKEE”, the protein production result was “failed”.

The record behind these values is a protein production outcome set (Wang et al. 2014).
